These results are taken from patent publication US20040171105.

For series [1], the target named is GST fusion form of full-length human cIAP1, Q13490.
The target of series [2] is T1, Livin β (human, N-terminal hexa-His tagged), Q96CA5.
T1 chain: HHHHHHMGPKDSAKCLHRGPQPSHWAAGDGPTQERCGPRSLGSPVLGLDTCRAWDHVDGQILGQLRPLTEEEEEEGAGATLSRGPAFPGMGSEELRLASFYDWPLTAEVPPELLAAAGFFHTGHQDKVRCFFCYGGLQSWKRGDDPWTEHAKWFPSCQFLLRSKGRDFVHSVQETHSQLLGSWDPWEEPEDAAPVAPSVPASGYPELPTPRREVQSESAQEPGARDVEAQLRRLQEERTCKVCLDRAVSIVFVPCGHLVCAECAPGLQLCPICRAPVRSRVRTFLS

Series [3] addresses mutant cIAP1 (recombinant cIAP1 mutated at the three preferred Omi cleavage sites, GST fusion) [GST: P08515].
The target of series [4] is GST fusion form of full-length human cIAP2, Q13489.
Chain of GST fusion form of full-length human cIAP2, Q13489 (Q13489 whole entry, the tested form may be a part): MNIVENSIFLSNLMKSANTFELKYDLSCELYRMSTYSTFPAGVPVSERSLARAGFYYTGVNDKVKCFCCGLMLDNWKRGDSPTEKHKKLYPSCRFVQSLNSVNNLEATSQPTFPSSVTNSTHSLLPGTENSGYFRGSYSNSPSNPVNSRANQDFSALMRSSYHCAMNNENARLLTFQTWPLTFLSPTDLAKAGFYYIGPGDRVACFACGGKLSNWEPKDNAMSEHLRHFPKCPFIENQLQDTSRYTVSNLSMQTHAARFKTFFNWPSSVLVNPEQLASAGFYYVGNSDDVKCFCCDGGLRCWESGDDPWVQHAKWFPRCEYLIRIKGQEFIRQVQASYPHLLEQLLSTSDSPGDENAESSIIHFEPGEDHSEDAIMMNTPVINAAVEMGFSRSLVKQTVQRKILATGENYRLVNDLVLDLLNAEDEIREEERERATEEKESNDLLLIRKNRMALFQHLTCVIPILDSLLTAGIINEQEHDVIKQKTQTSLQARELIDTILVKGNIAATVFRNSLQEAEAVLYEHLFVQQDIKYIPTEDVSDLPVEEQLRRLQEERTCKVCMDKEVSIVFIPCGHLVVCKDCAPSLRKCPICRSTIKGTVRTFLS
Series [5] concerns the target T2, GST fusion form of full-length Drosophila DIAP1, Q24306.
T2 chain: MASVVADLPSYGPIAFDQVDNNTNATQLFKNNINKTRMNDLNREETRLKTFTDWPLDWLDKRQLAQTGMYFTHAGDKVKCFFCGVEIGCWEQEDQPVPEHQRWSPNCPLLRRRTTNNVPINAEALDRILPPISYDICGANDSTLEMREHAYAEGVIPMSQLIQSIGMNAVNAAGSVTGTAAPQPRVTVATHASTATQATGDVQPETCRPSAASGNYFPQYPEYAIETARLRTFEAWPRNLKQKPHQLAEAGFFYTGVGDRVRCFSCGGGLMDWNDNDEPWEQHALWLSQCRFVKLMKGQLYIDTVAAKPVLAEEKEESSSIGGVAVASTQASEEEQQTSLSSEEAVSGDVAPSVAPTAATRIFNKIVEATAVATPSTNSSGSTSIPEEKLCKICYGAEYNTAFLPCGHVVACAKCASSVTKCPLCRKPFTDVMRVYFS

In series [6] the target is T3, Smac (purified recombinant), Q9NR28.
T3 chain: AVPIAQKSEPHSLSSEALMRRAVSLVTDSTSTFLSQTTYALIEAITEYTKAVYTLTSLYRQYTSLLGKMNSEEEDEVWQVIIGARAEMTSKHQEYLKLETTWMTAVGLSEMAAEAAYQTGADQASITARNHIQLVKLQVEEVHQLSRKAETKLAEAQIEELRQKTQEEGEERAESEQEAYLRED

For series [7], the target named is T4, Livin α (human, N-terminal hexa-His tagged), Q96CA5.
T4 chain: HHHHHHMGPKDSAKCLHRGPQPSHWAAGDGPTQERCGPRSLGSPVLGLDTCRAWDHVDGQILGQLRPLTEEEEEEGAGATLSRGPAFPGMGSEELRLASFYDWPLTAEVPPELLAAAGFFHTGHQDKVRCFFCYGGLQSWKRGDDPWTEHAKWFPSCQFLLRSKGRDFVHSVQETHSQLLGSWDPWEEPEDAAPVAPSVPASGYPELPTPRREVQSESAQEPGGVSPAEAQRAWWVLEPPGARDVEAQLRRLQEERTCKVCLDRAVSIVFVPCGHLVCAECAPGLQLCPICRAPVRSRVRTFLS

In series [8] the target is GST fusion form of full-length human XIAP, P98170.
Chain of GST fusion form of full-length human XIAP, P98170 (P98170 whole entry, the tested form may be a part): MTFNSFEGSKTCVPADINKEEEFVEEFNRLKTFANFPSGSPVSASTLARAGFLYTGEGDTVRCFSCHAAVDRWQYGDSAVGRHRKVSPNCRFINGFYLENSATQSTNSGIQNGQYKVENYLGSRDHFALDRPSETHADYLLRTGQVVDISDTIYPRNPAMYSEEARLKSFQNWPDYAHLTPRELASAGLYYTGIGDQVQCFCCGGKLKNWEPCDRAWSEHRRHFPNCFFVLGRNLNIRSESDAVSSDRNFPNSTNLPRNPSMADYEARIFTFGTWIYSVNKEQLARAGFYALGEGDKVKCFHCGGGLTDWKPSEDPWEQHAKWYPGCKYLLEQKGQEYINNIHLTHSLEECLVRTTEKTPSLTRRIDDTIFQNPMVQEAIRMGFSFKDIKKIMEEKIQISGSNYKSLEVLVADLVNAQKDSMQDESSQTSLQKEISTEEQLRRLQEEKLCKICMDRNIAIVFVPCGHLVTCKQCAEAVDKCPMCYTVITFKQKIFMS

Chain of GST fusion form of full-length human cIAP1, Q13490 (Q13490 whole entry, the tested form may be a part): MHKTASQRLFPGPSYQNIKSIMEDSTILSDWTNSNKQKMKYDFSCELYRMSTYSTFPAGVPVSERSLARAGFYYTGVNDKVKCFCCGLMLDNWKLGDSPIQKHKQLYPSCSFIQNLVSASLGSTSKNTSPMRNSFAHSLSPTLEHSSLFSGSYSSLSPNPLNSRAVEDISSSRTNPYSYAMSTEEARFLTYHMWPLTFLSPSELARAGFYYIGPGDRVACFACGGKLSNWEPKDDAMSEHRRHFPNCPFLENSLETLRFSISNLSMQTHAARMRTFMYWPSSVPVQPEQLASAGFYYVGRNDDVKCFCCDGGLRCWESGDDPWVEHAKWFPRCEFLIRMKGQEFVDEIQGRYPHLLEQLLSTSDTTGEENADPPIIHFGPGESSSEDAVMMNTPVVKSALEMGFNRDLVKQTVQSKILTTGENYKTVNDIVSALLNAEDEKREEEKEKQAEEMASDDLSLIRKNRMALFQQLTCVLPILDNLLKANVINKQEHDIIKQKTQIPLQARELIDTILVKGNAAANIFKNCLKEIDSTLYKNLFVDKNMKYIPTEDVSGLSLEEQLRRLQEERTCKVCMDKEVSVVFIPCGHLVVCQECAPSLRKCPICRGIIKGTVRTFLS
Chain of Survivin, O15392 (O15392 whole entry, looked up): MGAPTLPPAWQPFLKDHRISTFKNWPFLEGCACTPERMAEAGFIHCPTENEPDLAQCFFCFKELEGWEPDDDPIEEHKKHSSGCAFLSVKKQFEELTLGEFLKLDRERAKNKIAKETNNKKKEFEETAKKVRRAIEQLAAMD

B1: endogenous caspase-9 of HeLa S100 extract, activated by dATP and cytochrome c (protein)
chain: MDEADRRLLRRCRLRLVEELQVDQLWDALLSRELFRPHMIEDIQRAGSGSRRDQARQLIIDLETRGSQALPLFISCLEDTGQDMLASFLRTNRQAAKLSKPTLENLTPVVLRPEIRKPEVLRPETPRPVDIGSGGFGDVGALESLRGNADLAYILSMEPCGHCLIINNVNFCRESGLRTRTGSNIDCEKLRRRFSSLHFMVEVKGDLTAKKMVLALLELAQQDHGALDCCVVVILSHGCQASHLQFPGAVYGTDGCPVSVEKIVNIFNGTSCPSLGGKPKLFFIQACGGEQKDHGFEVASTSPEDESPGSNPEPDATPFQEGLRTFDQLDAISSLPTPSDIFVSYSTFPGFVSWRDPKSGSWYVETLDDIFEQWAHSEDLQSLLLRVANAVSVKGIYKQMPGCFNFLRKKLFFKTS
Turning to B1, in [1], the “caspase activity in HeLa extracts (cleavage of 35S-labeled procaspase-3)” value was “Caspase activity was completely inhibited by 250 nM of cIAP1”.

B2: OmiΔ8 (Omi without the AVPS tetrapeptide, C-terminal hexa-His tagged) (protein)
chain: PPPASPRSQYNFIADVVEKTAPAVVYIEILDRHPFLGREVPISNGSGFVVAADGLIVTNAHVVADRRRVRVRLLSGDTYEAVVTAVDPVADIATLRIQTKEPLPTLPLGRSADVRQGEFVVAMGSPFALQNTITSGIVSSAQRPARDLGLPQTNVEYIQTDAAIDFGNSGGPLVNLDGEVIGVNTMKVTAGISFAIPSDRLREFLHRGEKKNSSSGISGSQRRYIGVMMLTLSPSILAELQLREPSFPDVQHGVLIHKVILGSPAHRAGLRPGDVILAIGEQMVQNAEDVYEAVRTQSQLAVQIRRGRETLTLYVTPEVTEHHHHHH
Regarding B2, in series [1], the “cleavage of cIAP1 in vitro (SDS-PAGE, silver staining)” value was “A concentration (25 nM), 10-fold higher than the wild-type, was required to cleave IAP” and the “proteolytic efficiency against Omi WT” value is listed as “The proteolytic efficiency of Omi?8 was, therefore, 10-fold lower than that of Omi WT regarding cIAP1 cleavage”.

B3: OmiΔPDZ (Omi with the PDZ domain deleted, C-terminal hexa-His tagged) (protein)
chain: AVPSPPPASPRSQYNFIADVVEKTAPAVVYIEILDRHPFLGREVPISNGSGFVVAADGLIVTNAHVVADRRRVRVRLLSGDTYEAVVTAVDPVADIATLRIQTKEPLPTLPLGRSADVRQGEFVVAMGSPFALQNTITSGIVSSAQRPARDLGLPQTNVEYIQTDAAIDFGNSGGPLVNLDGEVIGVNTMKVTAGISFAIPSDRLREFLHRGEKKNSSSGISGSQHHHHHH
Turning to B3, in series [1], the “cleavage of cIAP1 in vitro (SDS-PAGE, silver staining)” value is “The Omi?PDZ at 2.5 nM cleaved the full-length cIAP1 molecules into smaller fragments, whereas the Omi WT enzyme, at the same concentration, still left some uncleaved full-length cIAP1 molecules”.

B4: Omi WT (wild-type mature Omi/HtrA2, C-terminal hexa-His tagged, recombinant from E. coli) (protein)
chain: AVPSPPPASPRSQYNFIADVVEKTAPAVVYIEILDRHPFLGREVPISNGSGFVVAADGLIVTNAHVVADRRRVRVRLLSGDTYEAVVTAVDPVADIATLRIQTKEPLPTLPLGRSADVRQGEFVVAMGSPFALQNTITSGIVSSAQRPARDLGLPQTNVEYIQTDAAIDFGNSGGPLVNLDGEVIGVNTMKVTAGISFAIPSDRLREFLHRGEKKNSSSGISGSQRRYIGVMMLTLSPSILAELQLREPSFPDVQHGVLIHKVILGSPAHRAGLRPGDVILAIGEQMVQNAEDVYEAVRTQSQLAVQIRRGRETLTLYVTPEVTEHHHHHH
Take B4: the “cleavage of Livin in vitro (Western blot, anti-Livin)” value in series [2] is “Omi WT cleaved Livin α and Livin β”; in series [7] it was “Omi WT cleaved Livin α and Livin β”. Moreover, the “IAP cleavage and caspase reactivation in HeLa S100 extracts” value in series [3] is “Omi at 75 or 10 nM resulted in similar amount IAP cleavage and caspase reactivation for mutant and wild-type cIAP1, respectively”; in series [1], “Omi at 75 or 10 nM resulted in similar amount IAP cleavage and caspase reactivation for mutant and wild-type cIAP1, respectively”. Further, in series [3], the “resistance to Omi protease against wild-type cIAP1” value is reported as “mutant cIAP1 is ˜7.5-fold more resistant to Omi protease”. The “cleavage in vitro (Western blot, anti-Survivin; 25 nM Survivin, 150 nM Omi WT)” value in the series with Survivin, O15392 is recorded as “This cleavage activity, however, was absent for Survivin”. The “cleavage of IAP in vitro” value in series [4] is “the wild-type Omi cleaved various forms of IAP proteins, including cIAP1, cIAP2, XIAP, Livin α and Livin β”; in series [5], “As shown in FIG. 1A, Omi WT cleaved IAP proteins”; in series [8] it was “the wild-type Omi cleaved various forms of IAP proteins, including cIAP1, cIAP2, XIAP, Livin α and Livin β”. Further, the “proteolytic processing of Smac by Omi” value in [6] is recorded as “Smac, therefore, was not cleavable by Omi”. Also, in [1], the “cleavage of cIAP1 in vitro (SDS-PAGE, silver staining)” value is on record as “Wild-type Omi (Omi WT) protein at 2.5 nM (nano Molar) almost completely cleaved 50 nM cIAP1”.

B5: Omi SA (protease dead mutant Omi S306→Ala, C-terminal hexa-His tagged) (protein)
chain: AVPSPPPASPRSQYNFIADVVEKTAPAVVYIEILDRHPFLGREVPISNGSGFVVAADGLIVTNAHVVADRRRVRVRLLSGDTYEAVVTAVDPVADIATLRIQTKEPLPTLPLGRSADVRQGEFVVAMGSPFALQNTITSGIVSSAQRPARDLGLPQTNVEYIQTDAAIDFGNAGGPLVNLDGEVIGVNTMKVTAGISFAIPSDRLREFLHRGEKKNSSSGISGSQRRYIGVMMLTLSPSILAELQLREPSFPDVQHGVLIHKVILGSPAHRAGLRPGDVILAIGEQMVQNAEDVYEAVRTQSQLAVQIRRGRETLTLYVTPEVTEHHHHHH
On to B5, for which the “cleavage of cIAP1 in vitro (Western blot, anti-GST)” value in [1] is reported as “Omi WT cleaved the cIAP1, but the Omi SA did not”.
